Values quoted from earlier work, collected in publication PMC12528386.

Target: BamA (Escherichia coli) (UniProt P0A940)

## RcsF (from UniProt P69411)
  Kd: 400 nM
